This is an account of results in patent US9415012B2, “Sustained-release composition containing peptides as active ingredient” (IPSEN PHARMA S.A.S., priority 2011, dated 2016).

This series is described as follows: IE-HPLC analysis of rhGH deamidation before/after spray-drying. Format: physicochemical. The following applies: 130° C. Here is the method: Recombinant human growth hormone in sodium carbonate buffer was dissolved in water. Sodium hyaluronate was present in the composition at a concentration of 2 mg/mL and rhGH at a concentration of 1 mg/mL. The weight ratio protein/sodium hyaluronate was equal to 0.5.
The composition was then spray dried with an inlet temperature of 130° C.
An ion-exchange high performance liquid chromatography (IE-HPLC) analysis was performed to evaluate the […] of rhGH and a size-exclusion chromatography high performance liquid chromatography (SEC-HPLC) analysis was performed to evaluate the aggregation of this protein.

As for rhGH: recombinant human growth hormone, the “Stability in the spray-drying process” value was “degraded”.
